Test results reported in patent publication US20230272029A1, “CO-AGONISTS AT GLP-1 AND GIP RECEPTORS SUITABLE FOR ORAL DELIVERY” (Novo Nordisk A/S, priority 2020, published 2023).
Starred links: 1 amine or outer side, 2 acyl side, 3 side chain; linkers in the order of their positions; H or OH if unused. Non-standard residues stand in square brackets, D forms with d. Groups on a side chain read outwards from the residue. No end group written: not given here. *: point of attachment. C18 diacid = O=C(O)CCCCCCCCCCCCCCCCC(=O)*; γGlu = O=C(O)[C@H](CCC(=O)[*:2])N[*:1]; εLys = N[C@@H](CCCCN[*:1])C(=O)[*:2]; Aib = CC(C)(N)C(=O)O

Key:
human GLP-1 receptor = human GLP-1 receptor (human, UniProt P43220 24-463); experiment: cell-based or functional assay
human GIP receptor = target: T1, human GIP receptor (human, UniProt P48546 22-466); experiment: cell-based or functional assay
T1 sequence (looked up): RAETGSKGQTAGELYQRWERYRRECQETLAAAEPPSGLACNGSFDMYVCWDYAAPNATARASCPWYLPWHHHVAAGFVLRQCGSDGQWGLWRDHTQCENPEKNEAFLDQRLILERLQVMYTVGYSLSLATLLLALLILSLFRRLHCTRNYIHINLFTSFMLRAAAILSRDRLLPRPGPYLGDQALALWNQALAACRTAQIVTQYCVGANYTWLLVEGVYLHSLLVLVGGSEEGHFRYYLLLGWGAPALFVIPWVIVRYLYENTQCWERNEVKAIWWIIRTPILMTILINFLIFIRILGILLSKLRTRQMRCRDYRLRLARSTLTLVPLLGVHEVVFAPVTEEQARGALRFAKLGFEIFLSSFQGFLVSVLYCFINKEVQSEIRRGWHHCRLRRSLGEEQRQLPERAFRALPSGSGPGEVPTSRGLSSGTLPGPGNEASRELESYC

| Binder | hGLP-1R, CRE Luc 0% HSA EC50 (pM) (human GLP-1 receptor) | hGLP-1R, CRE Luc 1% HSA EC50 (pM) (human GLP-1 receptor) | hGIPR, CRE Luc 0% HSA EC50 (pM) (human GIP receptor) | hGIPR, CRE Luc 1% HSA EC50 (pM) (human GIP receptor) |
| --- | --- | --- | --- | --- |
| Y[Aib]EGTFTSDYSILLEEQAARK([εLys-εLys-γGlu-C18 diacid])FINWLLAGGPSSGAPPPS-OH (N-terminus assumed; SMILES CC[C@H](C)[C@H](NC(=O)[C@H](Cc1ccccc1)NC(=O)[C@H](CCCCNC(=O)[C@@H](N)CCCCNC(=O)[C@@H](N)CCCCNC(=O)CC[C@H](NC(=O)CCCCCCCCCCCCCCCCC(=O)O)C(=O)O)NC(=O)[C@H](CCCNC(=N)N)NC(=O)[C@H](C)NC(=O)[C@H](C)NC(=O)[C@H](CCC(N)=O)NC(=O)[C@H](CCC(=O)O)NC(=O)[C@H](CCC(=O)O)NC(=O)[C@H](CC(C)C)NC(=O)[C@H](CC(C)C)NC(=O)[C@@H](NC(=O)[C@H](CO)NC(=O)[C@H](Cc1ccc(O)cc1)NC(=O)[C@H](CC(=O)O)NC(=O)[C@H](CO)NC(=O)[C@@H](NC(=O)[C@H](Cc1ccccc1)NC(=O)[C@@H](NC(=O)CNC(=O)[C@H](CCC(=O)O)NC(=O)C(C)(C)NC(=O)[C@@H](N)Cc1ccc(O)cc1)[C@@H](C)O)[C@@H](C)O)[C@@H](C)CC)C(=O)N[C@@H](CC(N)=O)C(=O)N[C@@H](Cc1c[nH]c2ccccc12)C(=O)N[C@@H](CC(C)C)C(=O)N[C@@H](CC(C)C)C(=O)N[C@@H](C)C(=O)NCC(=O)NCC(=O)N1CCC[C@H]1C(=O)N[C@@H](CO)C(=O)N[C@@H](CO)C(=O)NCC(=O)N[C@@H](C)C(=O)N1CCC[C@H]1C(=O)N1CCC[C@H]1C(=O)N1CCC[C@H]1C(=O)N[C@@H](CO)C(=O)O) [Compound No. 39] | 8.2 pM | 135 pM | 28.4 pM | 365 pM |
| Y[Aib]EGTFTSDYSILLEK([εLys-εLys-γGlu-C18 diacid])QAAREFIEWLLRGGPESGAPPPS-OH (N-terminus assumed; SMILES CC[C@H](C)[C@H](NC(=O)[C@H](Cc1ccccc1)NC(=O)[C@H](CCC(=O)O)NC(=O)[C@H](CCCNC(=N)N)NC(=O)[C@H](C)NC(=O)[C@H](C)NC(=O)[C@H](CCC(N)=O)NC(=O)[C@H](CCCCNC(=O)[C@@H](N)CCCCNC(=O)[C@@H](N)CCCCNC(=O)CC[C@H](NC(=O)CCCCCCCCCCCCCCCCC(=O)O)C(=O)O)NC(=O)[C@H](CCC(=O)O)NC(=O)[C@H](CC(C)C)NC(=O)[C@H](CC(C)C)NC(=O)[C@@H](NC(=O)[C@H](CO)NC(=O)[C@H](Cc1ccc(O)cc1)NC(=O)[C@H](CC(=O)O)NC(=O)[C@H](CO)NC(=O)[C@@H](NC(=O)[C@H](Cc1ccccc1)NC(=O)[C@@H](NC(=O)CNC(=O)[C@H](CCC(=O)O)NC(=O)C(C)(C)NC(=O)[C@@H](N)Cc1ccc(O)cc1)[C@@H](C)O)[C@@H](C)O)[C@@H](C)CC)C(=O)N[C@@H](CCC(=O)O)C(=O)N[C@@H](Cc1c[nH]c2ccccc12)C(=O)N[C@@H](CC(C)C)C(=O)N[C@@H](CC(C)C)C(=O)N[C@@H](CCCNC(=N)N)C(=O)NCC(=O)NCC(=O)N1CCC[C@H]1C(=O)N[C@@H](CCC(=O)O)C(=O)N[C@@H](CO)C(=O)NCC(=O)N[C@@H](C)C(=O)N1CCC[C@H]1C(=O)N1CCC[C@H]1C(=O)N1CCC[C@H]1C(=O)N[C@@H](CO)C(=O)O) [Compound No. 28] | 6.2 pM | 139 pM | 6.6 pM | 86.5 pM |
| Y[Aib]EGTFTSDYSILLEK([εLys-εLys-γGlu-C18 diacid])QAAREFIEWLLRGGPSSGAPPPS-OH (N-terminus assumed; SMILES CC[C@H](C)[C@H](NC(=O)[C@H](Cc1ccccc1)NC(=O)[C@H](CCC(=O)O)NC(=O)[C@H](CCCNC(=N)N)NC(=O)[C@H](C)NC(=O)[C@H](C)NC(=O)[C@H](CCC(N)=O)NC(=O)[C@H](CCCCNC(=O)[C@@H](N)CCCCNC(=O)[C@@H](N)CCCCNC(=O)CC[C@H](NC(=O)CCCCCCCCCCCCCCCCC(=O)O)C(=O)O)NC(=O)[C@H](CCC(=O)O)NC(=O)[C@H](CC(C)C)NC(=O)[C@H](CC(C)C)NC(=O)[C@@H](NC(=O)[C@H](CO)NC(=O)[C@H](Cc1ccc(O)cc1)NC(=O)[C@H](CC(=O)O)NC(=O)[C@H](CO)NC(=O)[C@@H](NC(=O)[C@H](Cc1ccccc1)NC(=O)[C@@H](NC(=O)CNC(=O)[C@H](CCC(=O)O)NC(=O)C(C)(C)NC(=O)[C@@H](N)Cc1ccc(O)cc1)[C@@H](C)O)[C@@H](C)O)[C@@H](C)CC)C(=O)N[C@@H](CCC(=O)O)C(=O)N[C@@H](Cc1c[nH]c2ccccc12)C(=O)N[C@@H](CC(C)C)C(=O)N[C@@H](CC(C)C)C(=O)N[C@@H](CCCNC(=N)N)C(=O)NCC(=O)NCC(=O)N1CCC[C@H]1C(=O)N[C@@H](CO)C(=O)N[C@@H](CO)C(=O)NCC(=O)N[C@@H](C)C(=O)N1CCC[C@H]1C(=O)N1CCC[C@H]1C(=O)N1CCC[C@H]1C(=O)N[C@@H](CO)C(=O)O) [Compound No. 27] | 4.6 pM | 127 pM | 6.3 pM | 132 pM |
| Y[Aib]EGTFTSDYSILLEK([εLys-εLys-γGlu-C18 diacid])QAAEEFINWLLAGGPSSGAPPPS-OH (N-terminus assumed; SMILES CC[C@H](C)[C@H](NC(=O)[C@H](Cc1ccccc1)NC(=O)[C@H](CCC(=O)O)NC(=O)[C@H](CCC(=O)O)NC(=O)[C@H](C)NC(=O)[C@H](C)NC(=O)[C@H](CCC(N)=O)NC(=O)[C@H](CCCCNC(=O)[C@@H](N)CCCCNC(=O)[C@@H](N)CCCCNC(=O)CC[C@H](NC(=O)CCCCCCCCCCCCCCCCC(=O)O)C(=O)O)NC(=O)[C@H](CCC(=O)O)NC(=O)[C@H](CC(C)C)NC(=O)[C@H](CC(C)C)NC(=O)[C@@H](NC(=O)[C@H](CO)NC(=O)[C@H](Cc1ccc(O)cc1)NC(=O)[C@H](CC(=O)O)NC(=O)[C@H](CO)NC(=O)[C@@H](NC(=O)[C@H](Cc1ccccc1)NC(=O)[C@@H](NC(=O)CNC(=O)[C@H](CCC(=O)O)NC(=O)C(C)(C)NC(=O)[C@@H](N)Cc1ccc(O)cc1)[C@@H](C)O)[C@@H](C)O)[C@@H](C)CC)C(=O)N[C@@H](CC(N)=O)C(=O)N[C@@H](Cc1c[nH]c2ccccc12)C(=O)N[C@@H](CC(C)C)C(=O)N[C@@H](CC(C)C)C(=O)N[C@@H](C)C(=O)NCC(=O)NCC(=O)N1CCC[C@H]1C(=O)N[C@@H](CO)C(=O)N[C@@H](CO)C(=O)NCC(=O)N[C@@H](C)C(=O)N1CCC[C@H]1C(=O)N1CCC[C@H]1C(=O)N1CCC[C@H]1C(=O)N[C@@H](CO)C(=O)O) [Compound No. 25] | 15.5 pM | 740 pM | 7.2 pM | 263 pM |
| Y[Aib]EGTFTSDYSILLEK([εLys-εLys-γGlu-C18 diacid])QAAHEFINWLLAGGPSSGAPPPS-OH (N-terminus assumed; SMILES CC[C@H](C)[C@H](NC(=O)[C@H](Cc1ccccc1)NC(=O)[C@H](CCC(=O)O)NC(=O)[C@H](Cc1c[nH]cn1)NC(=O)[C@H](C)NC(=O)[C@H](C)NC(=O)[C@H](CCC(N)=O)NC(=O)[C@H](CCCCNC(=O)[C@@H](N)CCCCNC(=O)[C@@H](N)CCCCNC(=O)CC[C@H](NC(=O)CCCCCCCCCCCCCCCCC(=O)O)C(=O)O)NC(=O)[C@H](CCC(=O)O)NC(=O)[C@H](CC(C)C)NC(=O)[C@H](CC(C)C)NC(=O)[C@@H](NC(=O)[C@H](CO)NC(=O)[C@H](Cc1ccc(O)cc1)NC(=O)[C@H](CC(=O)O)NC(=O)[C@H](CO)NC(=O)[C@@H](NC(=O)[C@H](Cc1ccccc1)NC(=O)[C@@H](NC(=O)CNC(=O)[C@H](CCC(=O)O)NC(=O)C(C)(C)NC(=O)[C@@H](N)Cc1ccc(O)cc1)[C@@H](C)O)[C@@H](C)O)[C@@H](C)CC)C(=O)N[C@@H](CC(N)=O)C(=O)N[C@@H](Cc1c[nH]c2ccccc12)C(=O)N[C@@H](CC(C)C)C(=O)N[C@@H](CC(C)C)C(=O)N[C@@H](C)C(=O)NCC(=O)NCC(=O)N1CCC[C@H]1C(=O)N[C@@H](CO)C(=O)N[C@@H](CO)C(=O)NCC(=O)N[C@@H](C)C(=O)N1CCC[C@H]1C(=O)N1CCC[C@H]1C(=O)N1CCC[C@H]1C(=O)N[C@@H](CO)C(=O)O) [Compound No. 26] | 7.4 pM | 595 pM | 4.9 pM | 153 pM |
| Y[Aib]EGTFTSDYSILLEK([εLys-εLys-γGlu-C18 diacid])QAAQEFINWLLAGGPSSGAPPPS-OH (N-terminus assumed; SMILES CC[C@H](C)[C@H](NC(=O)[C@H](Cc1ccccc1)NC(=O)[C@H](CCC(=O)O)NC(=O)[C@H](CCC(N)=O)NC(=O)[C@H](C)NC(=O)[C@H](C)NC(=O)[C@H](CCC(N)=O)NC(=O)[C@H](CCCCNC(=O)[C@@H](N)CCCCNC(=O)[C@@H](N)CCCCNC(=O)CC[C@H](NC(=O)CCCCCCCCCCCCCCCCC(=O)O)C(=O)O)NC(=O)[C@H](CCC(=O)O)NC(=O)[C@H](CC(C)C)NC(=O)[C@H](CC(C)C)NC(=O)[C@@H](NC(=O)[C@H](CO)NC(=O)[C@H](Cc1ccc(O)cc1)NC(=O)[C@H](CC(=O)O)NC(=O)[C@H](CO)NC(=O)[C@@H](NC(=O)[C@H](Cc1ccccc1)NC(=O)[C@@H](NC(=O)CNC(=O)[C@H](CCC(=O)O)NC(=O)C(C)(C)NC(=O)[C@@H](N)Cc1ccc(O)cc1)[C@@H](C)O)[C@@H](C)O)[C@@H](C)CC)C(=O)N[C@@H](CC(N)=O)C(=O)N[C@@H](Cc1c[nH]c2ccccc12)C(=O)N[C@@H](CC(C)C)C(=O)N[C@@H](CC(C)C)C(=O)N[C@@H](C)C(=O)NCC(=O)NCC(=O)N1CCC[C@H]1C(=O)N[C@@H](CO)C(=O)N[C@@H](CO)C(=O)NCC(=O)N[C@@H](C)C(=O)N1CCC[C@H]1C(=O)N1CCC[C@H]1C(=O)N1CCC[C@H]1C(=O)N[C@@H](CO)C(=O)O) [Compound No. 24] | 12.1 pM | 490 pM | 3.9 pM | 115 pM |
